Assay results published in US20190144543A1 (TAYU HUAXIA BIOTECH MEDICAL GROUP, published 2019).

Tests used:
[1] = target: T1, human PD-1 (hPD-1) expressed on cells (human, UniProt Q15116 25-288)
[2] = target: T1, human PD-1 (hPD-1) expressed on cells; assay: cell based RBA (hPD-1/hPD-L1): blocking of Biotin-hPD-L1 binding to CHOK1-hPD-1 cells, flow cytometry
[3] = target: T1, human PD-1 (hPD-1) expressed on cells; assay: cell-based or functional assay
hPD-1mIg fusion protein [4] = target: T2, hPD-1mIg fusion protein (human; mouse, UniProt Q15116 25-170); assay: SPR, Biacore T200, hPD-1mIg immobilized at 33 RU on CM5, antibody as analyte
T2 construct: extracellular domain; also called hPD-mIg; not shown: CH2-CH3 domain of mouse IgG2a heavy chain (plasmid pmIgG)

[5] = target: T1, human PD-1 (hPD-1) expressed on cells; assay: flow cytometry, FACS binding to CHOK1-hPD-1 cells
Protocol: (§1) The bindings of the antibodies to hPD-1 and cross-reactivity to cynomolgus monkey PD-1 (cPD-1) were tested using hPD-1 or cPD-1 expressing CHOK1 cells by flow cytometry. CHOK1-hPD-1, CHOK1-cPD-1 and CHOK1 blank cells were incubated with a serial dilution of test articles followed by Alexa Fluor® 488 conjugated goat anti-human IgG (H+L) antibody, and analyzed using a FACSCanto II (BD Biosciences, San Jose, Calif.).

[6] = target: T3, cynomolgus monkey PD-1 (cPD-1) expressed on cells (cynomolgus monkey, UniProt B0LAJ3 25-288); assay: flow cytometry, FACS binding to CHOK1-cPD-1 cells
T3 construct: also called CHOK1-cPD-1; PD-1 on cynomolgus monkey T cell
Protocol: as §1

hPD-1mIg fusion protein [7] = target: T2, hPD-1mIg fusion protein; assay: SPR, Biacore T100, hPD-1mIg immobilized on CM5, antibody as analyte
Protocol: The binding affinity and kinetics of the humanized PD-1 mAbs interact with hPD-1 protein was assessed with Biacore T100 (GE Healthcare Life Sciences). […] Nine different concentrations were tested for each sample. Detailed binding kinetic parameters (association rate, Ka, dissociation rate, Kd, and affinity constant, KD) can be determined by full kinetic analysis.

T3 sequence (B0LAJ3 entry or part of it limits assumed): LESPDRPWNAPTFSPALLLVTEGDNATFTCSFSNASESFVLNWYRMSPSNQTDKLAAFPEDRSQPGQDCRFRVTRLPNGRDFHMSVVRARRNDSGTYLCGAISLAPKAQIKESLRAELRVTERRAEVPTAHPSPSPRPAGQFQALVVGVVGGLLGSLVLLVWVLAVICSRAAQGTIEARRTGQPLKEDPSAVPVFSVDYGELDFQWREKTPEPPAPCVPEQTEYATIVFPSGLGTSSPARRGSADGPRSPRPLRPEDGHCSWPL
T1 sequence (Q15116 25-288): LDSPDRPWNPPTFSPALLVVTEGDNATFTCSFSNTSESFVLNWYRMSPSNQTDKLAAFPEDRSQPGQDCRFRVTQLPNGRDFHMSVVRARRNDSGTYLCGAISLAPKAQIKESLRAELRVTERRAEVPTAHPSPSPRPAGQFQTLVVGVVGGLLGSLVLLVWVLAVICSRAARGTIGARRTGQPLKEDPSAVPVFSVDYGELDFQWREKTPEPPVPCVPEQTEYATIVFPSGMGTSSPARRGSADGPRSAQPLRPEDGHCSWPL
T2 sequence (Q15116 25-170): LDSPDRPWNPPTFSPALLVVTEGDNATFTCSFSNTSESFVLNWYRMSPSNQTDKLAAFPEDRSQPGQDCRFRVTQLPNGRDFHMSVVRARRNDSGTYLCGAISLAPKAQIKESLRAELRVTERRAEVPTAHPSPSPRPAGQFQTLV

| Molecule | EC50 (read off the curve) [5] [nM] | EC50 (read off the curve) [6] [nM] | also measured |
| --- | --- | --- | --- |
| control human IgG4 (antibody) | – | – | EC50 of luciferase signal (RLU), PD-1/PD-L1 Blockade Bioassay with Jurkat-PD1 and CHO-PD-L1 cells; the Ctrl IgG4 curve is flat at about 270000 RLU and never rises [1]: 12.4 µg/mL; Inhibition rate [2]: 4.8% |
| Variant 3 (TY101) (humanized, VH variant a / VK variant c) (antibody, V domains shown, hIgG4 is the negative control; also called mutant combination 3) VH: EVQLVESGGGLVQPGGSLRLSCAASGFTFSSYTMSWVRQAPGKGLEWVSYISHGGGDTYYADSVKGRFTISRDNSKNTLYLQMNSLRAEDTAVYYCARHSGYERGYYYVMDYWGQGTLVTVSS VL: DIQLTQSPDSLSVSLGERATINCKASESVDYYGFSFLNWFQQKPGQPPKLLIYAASNRQSGVPDRFSGSGSGTDFTLTISSLQAEDVAVYFCQQSKEVPWTFGQGTKLEIKR | – | – | EC50 of luciferase signal (RLU), PD-1/PD-L1 Blockade Bioassay with Jurkat-PD1 and CHO-PD-L1 cells [3]: 0.224 µg/mL; fold slower dissociation rate Kd than the two commercial antibodies (Pembrolizumab, Nivolumab) (hPD-1mIg fusion protein [4]): 10 times |
| TY101-4G1 (antibody, V domains shown, TY101 is Variant 3 (VH a, VK c); isotype control is hIgG4; also called TY101 clone TY101-4G1) VH: EVQLVESGGGLVQPGGSLRLSCAASGFTFSSYTMSWVRQAPGKGLEWVSYISHGGGDTYYADSVKGRFTISRDNSKNTLYLQMNSLRAEDTAVYYCARHSGYERGYYYVMDYWGQGTLVTVSS VL: DIQLTQSPDSLSVSLGERATINCKASESVDYYGFSFLNWFQQKPGQPPKLLIYAASNRQSGVPDRFSGSGSGTDFTLTISSLQAEDVAVYFCQQSKEVPWTFGQGTKLEIKR | ~0.9 | ~2 | – |
| TY101-04-T3-05 (antibody, V domains shown, TY101 is Variant 3 (VH a, VK c); isotype control is hIgG4; also called TY101 clone TY101-04-T3-05) VH: EVQLVESGGGLVQPGGSLRLSCAASGFTFSSYTMSWVRQAPGKGLEWVSYISHGGGDTYYADSVKGRFTISRDNSKNTLYLQMNSLRAEDTAVYYCARHSGYERGYYYVMDYWGQGTLVTVSS VL: DIQLTQSPDSLSVSLGERATINCKASESVDYYGFSFLNWFQQKPGQPPKLLIYAASNRQSGVPDRFSGSGSGTDFTLTISSLQAEDVAVYFCQQSKEVPWTFGQGTKLEIKR | ~0.9 | ~2 | – |
| TY101-01-09 (antibody, V domains shown, TY101 is Variant 3 (VH a, VK c); isotype control is hIgG4; also called TY101 clone TY101-01-09) VH: EVQLVESGGGLVQPGGSLRLSCAASGFTFSSYTMSWVRQAPGKGLEWVSYISHGGGDTYYADSVKGRFTISRDNSKNTLYLQMNSLRAEDTAVYYCARHSGYERGYYYVMDYWGQGTLVTVSS VL: DIQLTQSPDSLSVSLGERATINCKASESVDYYGFSFLNWFQQKPGQPPKLLIYAASNRQSGVPDRFSGSGSGTDFTLTISSLQAEDVAVYFCQQSKEVPWTFGQGTKLEIKR | ~0.9 | ~2 | – |
| Variant 4 (humanized, VH variant b / VK variant a) (antibody, V domains shown, also called mutant combination 4) VH: EVQLVESGGGLVQPGGSLRLSCAASGFTFSSYTMSWVRQAPGKGLEWVSYISHGGGDTYYPDSVKGRFTISRDNSKNTLYLQMNSLRAEDTAVYYCARHSGYERGYYYVMDYWGQGTLVTVSS VL: DIVMTQSPDSLAVSLGERATINCKSSESVDYYGFSFLNWFQQKPGQPPKLLIYAASNRESGVPDRFSGSGSGTDFTLTISSLQAEDVAVYYCQQSKEVPWTFGQGTKLEIKR | – | – | kon (hPD-1mIg fusion protein [7]): 119000 M⁻¹ s⁻¹ |
